In the test the target is T1, recombinant human Trop-2-his protein (ACCESSION NO.: NP_002344.2, AA 1-274) (human, UniProt P09758 27-274).
T1 construct: range 27-274; also called recombinant human Trop-2 protein; recombinant human Trop-2 extracellular domain; not shown: his tag
T1 sequence (looked up): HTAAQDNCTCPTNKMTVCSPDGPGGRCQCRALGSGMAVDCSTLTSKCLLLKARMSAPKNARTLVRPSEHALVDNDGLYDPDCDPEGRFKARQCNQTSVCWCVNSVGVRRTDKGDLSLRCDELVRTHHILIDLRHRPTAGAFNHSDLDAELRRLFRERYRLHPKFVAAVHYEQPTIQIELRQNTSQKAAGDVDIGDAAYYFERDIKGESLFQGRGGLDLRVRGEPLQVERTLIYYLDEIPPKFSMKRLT
Kind of test: BLI, antibody on AHC sensor, Trop-2-his 60 nM. On the procedure:
5-6 days after cell transfection, culture supernatants were purified through ProA affinity chromatography column to obtain different humanized antibodies. Affinities of the obtained antibodies were determined by an assay including capturing Fc fragments of the antibodies with anti-human IgG Fc capture (AHC) biosensors using Octet QKe system instrument from Fortebio. For the assay, each of the humanized antibodies and control antibody Sacituzumab was diluted to 4 μg/ml in PBS, and was allowed to flow through the surface of an AHC biosensor (Cat.: 18-0015, PALL) for 120 s. Recombinant human Trop-2-his protein (ACCESSION NO.: NP_002344.2, AA 1-274) was used as a mobile phase, and its concentration was 60 nM. The binding time was 100 s and the dissociation time was 300 s. When the assay was finished, data from which the response values of blank control had been deducted were fitted to a 1:1 Langmuir binding model using software, and then kinetic constants for antigen-antibody binding were calculated.
Affinities of the antibodies obtained from the combinations of mutants of murine antibody 23-12, chimeric antibody ch23-12 and control antibody Sacituzumab to recombinant human Trop-2-his protein were determined by ForteBijo (Table 5).

These results are taken from patent US20240092930A1 (MABWELL SHANGHAI BIOSCIENCE, published 2024).

B1: h23-12-1 (antibody, human IgG1, kappa, V domains shown)
VH: QVQLVQSGAEVKKPGASVKVSCKASGYTFTSYWMHWVRQAPGQGLEWMGEITPSDNYTSYNQKFKGRVTITRDTSTSTAYMELSSLRSEDTAVYYCARGHGNYVSFDYWGQGTLVTVSS
VL: DIQMTQSPSSLSASVGDRVTITCRASQDISNYLNWYQQKPGKAPKLLIYYTSRLHSGVPSRFSGSGSGTDFTLTISSLQPEDFATYFCQQGYTLPPYTFGQGTKLEIKR
notes: also called CDR grafted antibody 23-12
In general, Kd refers to the concentration at which binding is half-saturated. For the molecule B1, the equilibrium dissociation constant (Kd) turned out to be 0.272 nM.

B2: h23-12-15 (antibody, human IgG1, kappa, V domains shown)
VH: QVQLVQSGAEVKKPGASVKVSCKASGYTFTSYWMHWVRQAPGQGLEWMGEITPSDNYTSYNQKFKGRVTITRDTSTSTAYMELSSLRSEDTAVYYCARGHGNYVSFDYWGQGTLVTVSS
VL: DIQMTQSPSSLSASVGDRVTITCRASQDISNYLNWYQQKPGKAPKLLIYYTSSLHSGVPSRFSGSGSGTDFTLTISSLQPEDFATYFCQQGYTLPPYTFGQGTKLEIKR
Consider B2, for which the Kd turned out to be 1.43 nM.

B3: h23-12-17 (antibody, human IgG1, kappa, V domains shown)
VH: QVQLVQSGAEVKKPGASVKVSCKASGYTFTSYWMHWVRQAPGQGLEWMGEITPSDGYTSYNQKFKGRVTITRDTSTSTAYMELSSLRSEDTAVYYCARGHGNYVSFDYWGQGTLVTVSS
VL: DIQMTQSPSSLSASVGDRVTITCRASQDISNYLNWYQQKPGKAPKLLIYYTSSLHSGVPSRFSGSGSGTDFTLTISSLQPEDFATYFCQQGYTLPPYTFGQGTKLEIKR
Take B3: the Kd stood at 28 nM.

B4: h23-12-13 (antibody, human IgG1, kappa, V domains shown)
VH: QVQLVQSGAEVKKPGASVKVSCKASGYTFTSYWMHWVRQAPGQGLEWMGEITPSDNYTSYNQKFKGRVTITRDTSTSTAYMELSSLRSEDTAVYYCARGEGNYVSFDYWGQGTLVTVSS
VL: DIQMTQSPSSLSASVGDRVTITCRASQDISNYLNWYQQKPGKAPKLLIYYASRLHSGVPSRFSGSGSGTDFTLTISSLQPEDFATYFCQQGYTLPPYTFGQGTKLEIKR
For B4, the Kd was found to be 0.916 nM.

B5: h23-12-6 (antibody, human IgG1, kappa, V domains shown)
VH: QVQLVQSGAEVKKPGASVKVSCKASGYTFTSYWMHWVRQAPGQGLEWMGEITPSDNYTSYNQKFKGRVTITRDTSTSTAYMELSSLRSEDTAVYYCARGEGNYVSFDYWGQGTLVTVSS
VL: DIQMTQSPSSLSASVGDRVTITCRASQDISNYLNWYQQKPGKAPKLLIYYTSRLHSGVPSRFSGSGSGTDFTLTISSLQPEDFATYFCQQGYTLPPYTFGQGTKLEIKR
For the molecule B5, the Kd amounted to 0.298 nM.

B6: h23-12-11 (antibody, human IgG1, kappa, V domains shown)
VH: QVQLVQSGAEVKKPGASVKVSCKASGYTFTSYWMHWVRQAPGQGLEWMGEITPSDNYGSYNQKFKGRVTITRDTSTSTAYMELSSLRSEDTAVYYCARGHGNYVSFDYWGQGTLVTVSS
VL: DIQMTQSPSSLSASVGDRVTITCRASQDISNYLNWYQQKPGKAPKLLIYYASRLHSGVPSRFSGSGSGTDFTLTISSLQPEDFATYFCQQGYTLPPYTFGQGTKLEIKR
For B6, the Kd worked out at 0.881 nM.

B7: h23-12-16 (antibody, human IgG1, kappa, V domains shown)
VH: QVQLVQSGAEVKKPGASVKVSCKASGYTFTSYWMHWVRQAPGQGLEWMGEITPGDNYTSYNQKFKGRVTITRDTSTSTAYMELSSLRSEDTAVYYCARGHGNYVSFDYWGQGTLVTVSS
VL: DIQMTQSPSSLSASVGDRVTITCRASQDISNYLNWYQQKPGKAPKLLIYYTSSLHSGVPSRFSGSGSGTDFTLTISSLQPEDFATYFCQQGYTLPPYTFGQGTKLEIKR
On to B7, for which the Kd is 2.87 nM.

B8: h23-12-8 (antibody, human IgG1, kappa, V domains shown)
VH: QVQLVQSGAEVKKPGASVKVSCKASGYTFTSYWMHWVRQAPGQGLEWMGEITPSDNYTSYNQKFKGRVTITRDTSTSTAYMELSSLRSEDTAVYYCARGHGNYVSFDYWGQGTLVTVSS
VL: DIQMTQSPSSLSASVGDRVTITCRASQDISNYLNWYQQKPGKAPKLLIYYASRLHSGVPSRFSGSGSGTDFTLTISSLQPEDFATYFCQQGYTLPPYTFGQGTKLEIKR
B8: the dissociation constant (Kd) amounted to 0.9 nM.

B9: h23-12-12 (antibody, human IgG1, kappa, V domains shown)
VH: QVQLVQSGAEVKKPGASVKVSCKASGYTFTSYWMHWVRQAPGQGLEWMGEITPSDNYTSYAQKFKGRVTITRDTSTSTAYMELSSLRSEDTAVYYCARGHGNYVSFDYWGQGTLVTVSS
VL: DIQMTQSPSSLSASVGDRVTITCRASQDISNYLNWYQQKPGKAPKLLIYYASRLHSGVPSRFSGSGSGTDFTLTISSLQPEDFATYFCQQGYTLPPYTFGQGTKLEIKR
Regarding B9, the Kd worked out at 26.2 nM.

B10: h23-12-10 (antibody, human IgG1, kappa, V domains shown)
VH: QVQLVQSGAEVKKPGASVKVSCKASGYTFTSYWMHWVRQAPGQGLEWMGEITPSDGYTSYNQKFKGRVTITRDTSTSTAYMELSSLRSEDTAVYYCARGHGNYVSFDYWGQGTLVTVSS
VL: DIQMTQSPSSLSASVGDRVTITCRASQDISNYLNWYQQKPGKAPKLLIYYASRLHSGVPSRFSGSGSGTDFTLTISSLQPEDFATYFCQQGYTLPPYTFGQGTKLEIKR
Regarding B10, the Kd was 9.62 nM.

B11: h23-12-19 (antibody, human IgG1, kappa, V domains shown)
VH: QVQLVQSGAEVKKPGASVKVSCKASGYTFTSYWMHWVRQAPGQGLEWMGEITPSDNYTSYAQKFKGRVTITRDTSTSTAYMELSSLRSEDTAVYYCARGHGNYVSFDYWGQGTLVTVSS
VL: DIQMTQSPSSLSASVGDRVTITCRASQDISNYLNWYQQKPGKAPKLLIYYTSSLHSGVPSRFSGSGSGTDFTLTISSLQPEDFATYFCQQGYTLPPYTFGQGTKLEIKR
As for B11, the Kd was found to be 10 nM.

B12: h23-12-14 (antibody, human IgG1, kappa, V domains shown)
VH: QVQLVQSGAEVKKPGASVKVSCKASGYTFTSYWMHWVRQAPGQGLEWMGEITPSDNYTSYNQKFKGRVTITRDTSTSTAYMELSSLRSEDTAVYYCARGQGNYVSFDYWGQGTLVTVSS
VL: DIQMTQSPSSLSASVGDRVTITCRASQDISNYLNWYQQKPGKAPKLLIYYASRLHSGVPSRFSGSGSGTDFTLTISSLQPEDFATYFCQQGYTLPPYTFGQGTKLEIKR
Consider B12, for which the Kd was 23.9 nM.

B13: h23-12-5 (antibody, human IgG1, kappa, V domains shown)
VH: QVQLVQSGAEVKKPGASVKVSCKASGYTFTSYWMHWVRQAPGQGLEWMGEITPSDNYTSYAQKFKGRVTITRDTSTSTAYMELSSLRSEDTAVYYCARGHGNYVSFDYWGQGTLVTVSS
VL: DIQMTQSPSSLSASVGDRVTITCRASQDISNYLNWYQQKPGKAPKLLIYYTSRLHSGVPSRFSGSGSGTDFTLTISSLQPEDFATYFCQQGYTLPPYTFGQGTKLEIKR
For the molecule B13, the Kd was determined as 3.2 nM.

B14: h23-12-9 (antibody, human IgG1, kappa, V domains shown)
VH: QVQLVQSGAEVKKPGASVKVSCKASGYTFTSYWMHWVRQAPGQGLEWMGEITPGDNYTSYNQKFKGRVTITRDTSTSTAYMELSSLRSEDTAVYYCARGHGNYVSFDYWGQGTLVTVSS
VL: DIQMTQSPSSLSASVGDRVTITCRASQDISNYLNWYQQKPGKAPKLLIYYASRLHSGVPSRFSGSGSGTDFTLTISSLQPEDFATYFCQQGYTLPPYTFGQGTKLEIKR
As to B14, the Kd came out at 1.1 nM.

B15: h23-12-2 (antibody, human IgG1, kappa, V domains shown)
VH: QVQLVQSGAEVKKPGASVKVSCKASGYTFTSYWMHWVRQAPGQGLEWMGEITPGDNYTSYNQKFKGRVTITRDTSTSTAYMELSSLRSEDTAVYYCARGHGNYVSFDYWGQGTLVTVSS
VL: DIQMTQSPSSLSASVGDRVTITCRASQDISNYLNWYQQKPGKAPKLLIYYTSRLHSGVPSRFSGSGSGTDFTLTISSLQPEDFATYFCQQGYTLPPYTFGQGTKLEIKR
With B15, the Kd was 0.893 nM.

B16: h23-12-18 (antibody, human IgG1, kappa, V domains shown)
VH: QVQLVQSGAEVKKPGASVKVSCKASGYTFTSYWMHWVRQAPGQGLEWMGEITPSDNYGSYNQKFKGRVTITRDTSTSTAYMELSSLRSEDTAVYYCARGHGNYVSFDYWGQGTLVTVSS
VL: DIQMTQSPSSLSASVGDRVTITCRASQDISNYLNWYQQKPGKAPKLLIYYTSSLHSGVPSRFSGSGSGTDFTLTISSLQPEDFATYFCQQGYTLPPYTFGQGTKLEIKR
In the case of B16, the Kd was 0.991 nM.

B17: h23-12-3 (antibody, human IgG1, kappa, V domains shown)
VH: QVQLVQSGAEVKKPGASVKVSCKASGYTFTSYWMHWVRQAPGQGLEWMGEITPSDGYTSYNQKFKGRVTITRDTSTSTAYMELSSLRSEDTAVYYCARGHGNYVSFDYWGQGTLVTVSS
VL: DIQMTQSPSSLSASVGDRVTITCRASQDISNYLNWYQQKPGKAPKLLIYYTSRLHSGVPSRFSGSGSGTDFTLTISSLQPEDFATYFCQQGYTLPPYTFGQGTKLEIKR
Turning to B17, the Kd was determined as 15 nM.

B18: h23-12-4 (antibody, human IgG1, kappa, V domains shown)
VH: QVQLVQSGAEVKKPGASVKVSCKASGYTFTSYWMHWVRQAPGQGLEWMGEITPSDNYGSYNQKFKGRVTITRDTSTSTAYMELSSLRSEDTAVYYCARGHGNYVSFDYWGQGTLVTVSS
VL: DIQMTQSPSSLSASVGDRVTITCRASQDISNYLNWYQQKPGKAPKLLIYYTSRLHSGVPSRFSGSGSGTDFTLTISSLQPEDFATYFCQQGYTLPPYTFGQGTKLEIKR
On to B18, for which the Kd is 0.827 nM.

B19: h23-12-7 (antibody, human IgG1, kappa, V domains shown)
VH: QVQLVQSGAEVKKPGASVKVSCKASGYTFTSYWMHWVRQAPGQGLEWMGEITPSDNYTSYNQKFKGRVTITRDTSTSTAYMELSSLRSEDTAVYYCARGQGNYVSFDYWGQGTLVTVSS
VL: DIQMTQSPSSLSASVGDRVTITCRASQDISNYLNWYQQKPGKAPKLLIYYTSRLHSGVPSRFSGSGSGTDFTLTISSLQPEDFATYFCQQGYTLPPYTFGQGTKLEIKR
For B19, the Kd was 6.8 nM.
